Our source for the Kd values is US20240409617A1.

This assay concerns the target S1. Put plainly: BLI. (In general: In BLI a coated tip is dipped into the sample, and binding shifts an interference pattern.)

As a reminder, the Kd is the free concentration of one partner at which half of the binding sites on the other are occupied at equilibrium, for simple one-to-one binding. Low values mean tighter binding, high ones weaker binding. On to CR3022 IgG, for which the Kd is under 1 pM.
